Biological target: T1, mouse TMEM16A(ac) isoform (mouse), Q8BHY3
T1 chain: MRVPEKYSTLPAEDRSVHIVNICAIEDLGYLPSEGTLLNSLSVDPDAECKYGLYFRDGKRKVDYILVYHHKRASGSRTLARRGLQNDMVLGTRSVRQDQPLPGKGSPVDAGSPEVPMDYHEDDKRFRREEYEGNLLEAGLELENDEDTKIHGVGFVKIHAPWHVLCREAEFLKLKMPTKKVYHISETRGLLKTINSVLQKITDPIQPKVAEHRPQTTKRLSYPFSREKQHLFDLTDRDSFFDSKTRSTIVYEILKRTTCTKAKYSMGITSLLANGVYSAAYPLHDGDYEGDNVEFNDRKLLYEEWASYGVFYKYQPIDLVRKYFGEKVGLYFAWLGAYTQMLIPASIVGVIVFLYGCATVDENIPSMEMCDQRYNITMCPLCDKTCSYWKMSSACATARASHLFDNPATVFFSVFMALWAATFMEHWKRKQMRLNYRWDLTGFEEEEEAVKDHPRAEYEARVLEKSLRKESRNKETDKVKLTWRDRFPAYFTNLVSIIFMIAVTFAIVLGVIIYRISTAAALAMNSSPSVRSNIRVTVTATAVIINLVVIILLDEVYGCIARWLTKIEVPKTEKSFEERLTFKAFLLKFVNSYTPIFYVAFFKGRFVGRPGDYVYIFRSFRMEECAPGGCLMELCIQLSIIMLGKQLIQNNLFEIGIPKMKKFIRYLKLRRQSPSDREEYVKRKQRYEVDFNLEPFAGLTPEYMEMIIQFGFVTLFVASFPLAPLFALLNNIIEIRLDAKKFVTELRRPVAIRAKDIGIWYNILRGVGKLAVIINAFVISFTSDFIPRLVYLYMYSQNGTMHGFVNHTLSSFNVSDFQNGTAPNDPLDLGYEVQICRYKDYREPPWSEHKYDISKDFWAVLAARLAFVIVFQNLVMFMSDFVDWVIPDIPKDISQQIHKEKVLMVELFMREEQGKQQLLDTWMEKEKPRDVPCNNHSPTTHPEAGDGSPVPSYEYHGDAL
Assay: cryo-EM structure; purified mTMEM16A at 3 mg/ml in 0.12% digitonin, 20 mM HEPES pH 7.5, 150 mM NaCl, 0.5 mM CaCl2; single particle reconstruction with C2 symmetry imposed, 6.6 Å; poly-alanine model
Details: remark: other sources report otherwise

stoichiometry N: 2
B1: mouse TMEM16A(ac) isoform, Q8BHY3 1-960 (natural protein)
chain: MRVPEKYSTLPAEDRSVHIVNICAIEDLGYLPSEGTLLNSLSVDPDAECKYGLYFRDGKRKVDYILVYHHKRASGSRTLARRGLQNDMVLGTRSVRQDQPLPGKGSPVDAGSPEVPMDYHEDDKRFRREEYEGNLLEAGLELENDEDTKIHGVGFVKIHAPWHVLCREAEFLKLKMPTKKVYHISETRGLLKTINSVLQKITDPIQPKVAEHRPQTTKRLSYPFSREKQHLFDLTDRDSFFDSKTRSTIVYEILKRTTCTKAKYSMGITSLLANGVYSAAYPLHDGDYEGDNVEFNDRKLLYEEWASYGVFYKYQPIDLVRKYFGEKVGLYFAWLGAYTQMLIPASIVGVIVFLYGCATVDENIPSMEMCDQRYNITMCPLCDKTCSYWKMSSACATARASHLFDNPATVFFSVFMALWAATFMEHWKRKQMRLNYRWDLTGFEEEEEAVKDHPRAEYEARVLEKSLRKESRNKETDKVKLTWRDRFPAYFTNLVSIIFMIAVTFAIVLGVIIYRISTAAALAMNSSPSVRSNIRVTVTATAVIINLVVIILLDEVYGCIARWLTKIEVPKTEKSFEERLTFKAFLLKFVNSYTPIFYVAFFKGRFVGRPGDYVYIFRSFRMEECAPGGCLMELCIQLSIIMLGKQLIQNNLFEIGIPKMKKFIRYLKLRRQSPSDREEYVKRKQRYEVDFNLEPFAGLTPEYMEMIIQFGFVTLFVASFPLAPLFALLNNIIEIRLDAKKFVTELRRPVAIRAKDIGIWYNILRGVGKLAVIINAFVISFTSDFIPRLVYLYMYSQNGTMHGFVNHTLSSFNVSDFQNGTAPNDPLDLGYEVQICRYKDYREPPWSEHKYDISKDFWAVLAARLAFVIVFQNLVMFMSDFVDWVIPDIPKDISQQIHKEKVLMVELFMREEQGKQQLLDTWMEKEKPRDVPCNNHSPTTHPEAGDGSPVPSYEYHGDAL

Reference: paper PMC5470873
